Measurements taken from patent US20250376529A1 (Amgen, published 2025).

T1: Rhesus GIPR (rhesus, UniProt F7E1R9 22-466)
T1 sequence: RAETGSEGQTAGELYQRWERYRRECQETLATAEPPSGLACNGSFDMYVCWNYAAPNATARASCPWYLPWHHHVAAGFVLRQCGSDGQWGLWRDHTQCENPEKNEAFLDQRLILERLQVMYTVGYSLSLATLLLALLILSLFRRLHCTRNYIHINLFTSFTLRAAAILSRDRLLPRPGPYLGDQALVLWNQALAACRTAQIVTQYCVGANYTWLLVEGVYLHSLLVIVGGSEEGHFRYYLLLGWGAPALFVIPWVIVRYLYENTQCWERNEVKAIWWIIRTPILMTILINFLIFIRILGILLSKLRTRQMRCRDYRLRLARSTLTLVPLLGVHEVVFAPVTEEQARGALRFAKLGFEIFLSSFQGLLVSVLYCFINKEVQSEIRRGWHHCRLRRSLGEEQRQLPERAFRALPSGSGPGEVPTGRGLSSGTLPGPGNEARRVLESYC


biological target: T1, Rhesus GIPR; assay: cell-based or functional assay

Rhesus GIPR CAMP Assay (Conc. mAb @ 60% Inhibition in nM) | Binder
1.23 nM | 2C2.005.013 (antibody, human IgG1, lambda, N297G, V domains shown) VH: QMQVVQSGAEVKKPGASVKVSCKASGYTFTGYYMHWVRQAPGQGLEWMGWINPNSGGTNYAQKFQGRVTMTRDTSISTAYMELSSLRSDDTAVYYCARGGDYVFGTYRPHYYYGMDVWGQGTTVTVSS VL: not shown
0.61 nM | 12H11.005 (antibody, human IgG1, kappa, N297G, V domains shown) VH: QVPLVQSGAEVKKPGASVKVSCKASGYTFTGYYIHWVRQAPGQGLEWMGWISPNNGETNYAQKFQDRVTMTRDTSISTAYMELSRLRSDDTAVYYCAREATIFGMLIVPFDYWGQGTLVTVSS VL: DIVMTQSPDSLSVSLGERATINCKSSQSVLSSSNNKNYLAWYQQKPGQPPNLLIYWTSTRDSGVPDRFSGSGSGTDFTLTINSLQAEDVAVYYCQQYYRTPWTFGQGTKVEIKR
0.56 nM | 12H11.008 (antibody, human IgG1, kappa, N297G, V domains shown) VH: QVPLVQSGAEVKKPGASVKVSCKASGYTFTGYYIHWVRQAPGQGLEWMGWISPNNGETNYAQKFQDRVTMTRDTSISTAYMELSRLRSDDTAVYYCTREATIFGMLIVPFDYWGQGTLVTVSS VL: DIVMTQSPDSLSVSLGERATINCKSSQSVLSSSNNKNYLAWYQQKPGQPPNLLIYWTSTRDSGVPDRFSGSGSGTDFTLTINSLQAEDVAVYYCQQYYRTPWTFGQGTKVEIKR
0.56 nM | 12H11.007 (antibody, human IgG1, kappa, N297G, V domains shown) VH: QVPLVQSGAEVKKPGASVKVSCKASGYTFTGYYIHWVRQAPGQGLEWMGWISPNQGDTNYAQKFQDRVTMTRDTSISTAYMELSRLRSDDTAVYYCTREATIFGMLIVPFDYWGQGTLVTVSS VL: DIVMTQSPDSLSVSLGERATINCKSSQSVLSSSNNKNYLAWYQQKPGQPPNLLIYWTSTRDSGVPDRFSGSGSGTDFTLTINSLQAEDVAVYYCQQYYRTPWTFGQGTKVEIKR
0.57 nM | 12H11.012 (antibody, human IgG1, kappa, N297G, V domains shown) VH: QVPLVQSGAEVKKPGASVKVSCKASGYTFTGYYIHWVRQAPGQGLEWMGWISPNNGETNYAQKFQDRVTMTRDTSISTAYMELSRLRSDDTAVYYCAREATIFGMLIVPFDYWGQGTLVTVSS VL: not shown
0.59 nM | 12H11.006 (antibody, human IgG1, kappa, N297G, V domains shown) VH: QVPLVQSGAEVKKPGASVKVSCKASGYTFTGYYIHWVRQAPGQGLEWMGWISPNNGDTNYAQKFQDRVTMTRDTSISTAYMELSRLRSDDTAVYYCAREATIFGMLIVPFDYWGQGTLVTVSS VL: DIVMTQSPDSLSVSLGERATINCKSSQSVLSSSNNKNYLAWYQQKPGQPPNLLIYWTSTRDSGVPDRFSGSGSGTDFTLTINSLQAEDVAVYYCQQYYRTPWTFGQGTKVEIKR
0.6 nM | 12H11.009 (antibody, human IgG1, kappa, N297G, V domains shown) VH: QVPLVQSGAEVKKPGASVKVSCKASGYTFTGYYIHWVRQAPGQGLEWMGWISPNQGETNYAQKFQDRVTMTRDTSISTAYMELSRLRSDDTAVYYCAREATIFGMLIVPFDYWGQGTLVTVSS VL: not shown
0.71 nM | 12H11.010 (antibody, human IgG1, kappa, N297G, V domains shown) VH: QVPLVQSGAEVKKPGASVKVSCKASGYTFTGYYIHWVRQAPGQGLEWMGWISPNNGDTNYAQKFQDRVTMTRDTSISTAYMELSRLRSDDTAVYYCAREATIFGMLIVPFDYWGQGTLVTVSS VL: not shown
0.47 nM | 12H11.011 (antibody, human IgG1, kappa, N297G, V domains shown) VH: QVPLVQSGAEVKKPGASVKVSCKASGYTFTGYYIHWVRQAPGQGLEWMGWISPNQGDTNYAQKFQDRVTMTRDTSISTAYMELSRLRSDDTAVYYCAREATIFGMLIVPFDYWGQGTLVTVSS VL: not shown
0.29 nM | 17B11.002.001 (antibody, human IgG1, lambda, N297G, V domains shown) VH: QMQLVQSGAEVKKPGASVKVSCKASGYTFTSYDINWVRQATGQGLEWMGWMNPNSGGTGYAQKFQGRVTMTRDTSISTAYMELSSLRSQDTAVYYCARGGDYVWGSYRPYYYYYGMDVWGQGTTVTVSS VL: QSVLTQPPSVSAAPGQKVTISCSGSSSNIGNNYVSWYQQLPGTAPKLLIYDNNKRPSGIPDRFSGSKSGTSATLGITGLQTGDEADYYCGTWDSSLSAVVFGGGTKLTVLG
0.08 nM | 17B11.002.005 (antibody, human IgG1, lambda, N297G, V domains shown) VH: QMQLVQSGAEVKKPGASVKVSCKASGYTFTSYDINWVRQATGQGLEWMGWMNPNSGGTGYAQKFQGRVTMTRDTSISTAYMELSSLRSQDTAVYYCARGGDYVWGSYRPYYYYYGMDVWGQGTTVTVSS VL: QSVLTQPPSVSAAPGQKVTISCSGSSSNIGNNYVSWYQQLPGTAPKLLIYDNNKRPSGIPDRFSGSKSGTSATLAITGLQTGDEADYYCGTWDSSLSAVVFGGGTKLTVLG
0.21 nM | 17B11.002 (antibody, human IgG1, lambda, N297G, V domains shown) VH: QMQLVQSGAEVKKPGASVKVSCKASGYTFTSYDINWVRQATGQGLEWMGWMNPNSGNTGYAQKFQGRVTMTRDTSISTAYMELSSLRSQDTAVYYCARGGDYVWGSYRPYYYYYGMDVWGQGTTVTVSS VL: QSVLTQPPSVSAAPGQKVTISCSGSSSNIGNNYVSWYEQFPGTAPKLLIYDNNKRPSGIPDRFSGSKSGTSATLGITGLQTGDEADYYCGTWDSSLSAVVFGGGTKLTVLG
0.08 nM | 17B11.002.003 (antibody, human IgG1, lambda, N297G, V domains shown) VH: QMQLVQSGAEVKKPGASVKVSCKASGYTFTSYDINWVRQATGQGLEWMGWMNPNSGGTGYAQKFQGRVTMTRDTSISTAYMELSSLRSQDTAVYYCARGGDYVWGSYRPYYYYYGMDVWGQGTTVTVSS VL: QSVLTQPPSVSAAPGQKVTISCSGSSSNIGNNYVSWYEQFPGTAPKLLIYDNNKRPSGIPDRFSGSKSGTSATLGITGLQTGDEADYYCGTWDSSLSAVVFGGGTKLTVLG
7.89 nM | 17B11.002.008 (antibody, human IgG1, lambda, N297G, V domains shown) VH: QMQLVQSGAEVKKPGASVKVSCKASGYTFTSYDINWVRQAPGQGLEWMGWMNPNSGGTGYAQKFQGRVTMTRDTSISTAYMELSSLRSDDTAVYYCARGGDYVFGSYRPYYYYYGMDVWGQGTTVTVSS VL: QSVLTQPPSVSAAPGQKVTISCSGSSSNIGNNYVSWYQQLPGTAPKLLIYDNNKRPSGIPDRFSGSKSGTSATLAITGLQTGDEADYYCGTFESSLSAVVFGGGTKLTVLG
0 nM | 17B11.002.006 (antibody, human IgG1, lambda, N297G, V domains shown) VH: QMQLVQSGAEVKKPGASVKVSCKASGYTFTSYDINWVRQAPGQGLEWMGWMNPNSGNTGYAQKFQGRVTMTRDTSISTAYMELSSLRSDDTAVYYCARGGDYVWGSYRPYYYYYGMDVWGQGTTVTVSS VL: QSVLTQPPSVSAAPGQKVTISCSGSSSNIGNNYVSWYQQLPGTAPKLLIYDNNKRPSGIPDRFSGSKSGTSATLAITGLQTGDEADYYCGTWDSSLSAVVFGGGTKLTVLG
0 nM | 17B11.002.002 (antibody, human IgG1, lambda, N297G, V domains shown) VH: QMQLVQSGAEVKKPGASVKVSCKASGYTFTSYDINWVRQATGQGLEWMGWMNPNSGNTGYAQKFQGRVTMTRDTSISTAYMELSSLRSQDTAVYYCARGGDYVWGSYRPYYYYYGMDVWGQGTTVTVSS VL: QSVLTQPPSVSAAPGQKVTISCSGSSSNIGNNYVSWYQQLPGTAPKLLIYDNNKRPSGIPDRFSGSKSGTSATLGITGLQTGDEADYYCGTWDSSLSAVVFGGGTKLTVLG
0.17 nM | 17B11.002.004 (antibody, human IgG1, lambda, N297G, V domains shown) VH: QMQLVQSGAEVKKPGASVKVSCKASGYTFTSYDINWVRQAPGQGLEWMGWMNPNSGGTGYAQKFQGRVTMTRDTSISTAYMELSSLRSDDTAVYYCARGGDYVWGSYRPYYYYYGMDVWGQGTTVTVSS VL: QSVLTQPPSVSAAPGQKVTISCSGSSSNIGNNYVSWYQQLPGTAPKLLIYDNNKRPSGIPDRFSGSKSGTSATLAITGLQTGDEADYYCGTFESSLSAVVFGGGTKLTVLG
0.9 nM | 17B11.002.007 (antibody, human IgG1, lambda, N297G, V domains shown) VH: QMQLVQSGAEVKKPGASVKVSCKASGYTFTSYDINWVRQATGQGLEWMGWMNPNSGGTGYAQKFQGRVTMTRDTSISTAYMELSSLRSQDTAVYYCARGGDYVFGSYRPYYYYYGMDVWGQGTTVTVSS VL: QSVLTQPPSVSAAPGQKVTISCSGSSSNIGNNYVSWYQQLPGTAPKLLIYDNNKRPSGIPDRFSGSKSGTSATLGITGLQTGDEADYYCGTWDSSLSAVVFGGGTKLTVLG
40 nM | 2F11.002 (antibody, human IgG1, kappa, N297G, V domains shown) VH: not shown VL: DIQMTQSPSSLSASVGDRVTITCQASQDISNYLNWYQQKPGKAPKLLIYDASNLETGVPSRFSGSGSGTDFSLTISSLQPEDFATYYCQQYDILLTFGGGTKVEIKR
68.6 nM | 2F11.005 (antibody, human IgG1, kappa, N297G, V domains shown) VH: not shown VL: DIQMTQSPSSLSASVGDRVTITCQASQDISNYLNWYQQKPGKAPKLLIYDASNLETGVPSRFSGSGSGTDFSFTISSLQPEDFATYYCQQYDILLTFGGGTKVEIKR
35.5 nM | 2F11.004 (antibody, human IgG1, kappa, N297G, V domains shown) VH: not shown VL: DIQMTQSPSSLSASVGDRVTITCQASQDISNYLNWYQQKPGKAPKLLIYDASNLETGVPSRFSGSGSGTDFSLTISSLQPEDIATYYCQQYDILLTFGGGTKVEIKR
1.79 nM | 2F11.003 (antibody, human IgG1, kappa, N297G, V domains shown) VH: QVQLVESGGGVVQPGRSLRLSCAASGFTFSSYGMHWVRQAPGKGLEWVAVIWYDASNKYYADAVKGRFTISSDNSKNTLYLQMNSLRAEDTAVYYCARDRTIFGVVLDYWGQGTLVTVSS VL: DIQMTQSPSSLSASVGDRVTITCQASQDISNYLNWYQQKPGKAPKLLIYDASNLETGVPSRFSGSGSGTDFSLTISSLQPEDFATYYCQQYDILLTFGGGTKVEIKR
